Data on 120 sequences can be found in the supplement of paper PMC10126150.

± gives the standard deviation of the averaged measurements.
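Further: ATP exposure 15 min at 22 °C before imaging.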

For this data set, the system named is ATP. Put plainly: switch fluorescence ratio, 500 uM ATP over buffer (Cy3 cluster intensity, sum of 5 cycles each) (fold (ratio)); higher = stronger signal-on switching upon ATP binding; sequences stand for … in TCGTCGGCAGCGTCAGATGTGTATAAGAGACAGTTTTTTTTTTTTTTTTTTTTTTTTT…TC. The conditions noted are these: aptamer strand: ATP DNA aptamer (quencher-CACCTGGGGGAGTATTGCGGAGGAAGG + anchor), 100 nM annealed; ATP concentration: 500 uM. The method in brief:
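Cy3-labelled switching-strand clusters on a modified Illumina MiSeq flow-cell were annealed to 100 nM quencher-labelled ATP aptamer and imaged first in selection buffer, then after 15 min with 500 uM ATP at 22 °C. NaOH stripping and re-annealing separated each of five buffer/ATP cycles, and clusters outside 100-1000 RFU were excluded. The fluorescence ratio sums target-cycle Cy3 intensity over buffer-cycle Cy3 intensity per cluster and averages it per switch-domain sequence.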
For the sequence GGTGGGTTTT, the switch fluorescence ratio turned out to be 0.99 ± 0.013.

Regarding TTAGTTTTAG, the switch fluorescence ratio is 1.008 ± 0.0056.

Regarding AAAATGGTGC, the switch fluorescence ratio was 1.06 ± 0.065.

Consider GAAATTTATA, for which the switch fluorescence ratio worked out at 1.05 ± 0.04.

As to ATCGGGTTGG, the switch fluorescence ratio is 0.965 ± 0.018.

As for GGTATTTATT, the switch fluorescence ratio amounted to 1.01 ± 0.019.

With TATGTGGGCC, the switch fluorescence ratio amounted to 0.97 ± 0.041.

For CTCGAGGGTA, the switch fluorescence ratio was 1 ± 0.022.

Regarding TAAAGGGGCG, the switch fluorescence ratio stood at 1.01 ± 0.031.

Regarding AAATCTCTTT, the switch fluorescence ratio is 1 ± 0.014.

On to AAGGGCCTGC, for which the switch fluorescence ratio is 0.9723 ± 0.0039.

Take CGTTTTTTTA: the switch fluorescence ratio turned out to be 0.992 ± 0.018.

Regarding AAATGGCTGG, the switch fluorescence ratio turned out to be 0.9982 ± 0.0091.

Turning to TTAATCTTTC, the switch fluorescence ratio stood at 1.09 ± 0.05.

On to GTTTTTGTCA, for which the switch fluorescence ratio worked out at 1.021 ± 0.008.

As to AGCATGTGGC, the switch fluorescence ratio is 0.991 ± 0.016.

On to GGTTTGGGGC, for which the switch fluorescence ratio is 1.03 ± 0.074.

Turning to CGGCTATTAC, the switch fluorescence ratio was found to be 3.64 ± 1.3.

As to GCTGATCGTA, the switch fluorescence ratio amounted to 0.9915 ± 0.0057.

On to ATGGGGTTTT, for which the switch fluorescence ratio stood at 1.01 ± 0.02.

In the case of TTATATTTGT, the switch fluorescence ratio is 0.98 ± 0.02.

Turning to TTATATTGCG, the switch fluorescence ratio came out at 0.9885 ± 0.0014.

Take AAGGGGGTGT: the switch fluorescence ratio came to 0.965 ± 0.026.

Regarding TCCATAGTGA, the switch fluorescence ratio was determined as 1.26 ± 0.085.

As to CCATGGCCAC, the switch fluorescence ratio stood at 1.0321 ± 0.00059.

Consider TAGGCAGGGG, for which the switch fluorescence ratio was found to be 1.08 ± 0.021.

With TTGGTCGCTG, the switch fluorescence ratio is 1.01 ± 0.011.

For the sequence ATGGTACCCT, the switch fluorescence ratio was found to be 1.038 ± 0.0052.

On to AGCTGGTGGC, for which the switch fluorescence ratio stood at 1.01 ± 0.078.

For ATTTCGTAGG, the switch fluorescence ratio came out at 1.01 ± 0.024.

With GGTAACCGCT, the switch fluorescence ratio came out at 1.01 ± 0.03.

Turning to ACACTCGTCT, the switch fluorescence ratio was determined as 1.009 ± 0.0051.

With AGAGTATTTA, the switch fluorescence ratio stood at 0.991 ± 0.011.

As for TTCGGATAAT, the switch fluorescence ratio is 0.98 ± 0.011.

On to AAGCGGAGGG, for which the switch fluorescence ratio amounted to 1.02 ± 0.062.

As for CGTATTTCTG, the switch fluorescence ratio is 0.938 ± 0.072.

Regarding AATGTCGACC, the switch fluorescence ratio was 1.026 ± 0.0022.

As to TATTTGTTAG, the switch fluorescence ratio was 0.997 ± 0.031.

For ATTGCAGGTT, the switch fluorescence ratio was determined as 0.965 ± 0.01.

As for TGGGGGTGG, the switch fluorescence ratio is 0.957 ± 0.046.

In the case of AAAAGGTGCC, the switch fluorescence ratio worked out at 1.13 ± 0.024.

Regarding CGGAGGGGAA, the switch fluorescence ratio is 1 ± 0.014.

Turning to AGCTGCGACG, the switch fluorescence ratio turned out to be 0.992 ± 0.044.

For CGGGAGGTA, the switch fluorescence ratio amounted to 1.0174 ± 1.4e-06.

Consider CATTCCGAGA, for which the switch fluorescence ratio stood at 1.4 ± 0.024.

With TTAGGGCGGG, the switch fluorescence ratio came out at 1.04 ± 0.039.

As for TGGGGGTCGG, the switch fluorescence ratio was found to be 1.03 ± 0.017.

In the case of GACCGGACAT, the switch fluorescence ratio was found to be 0.996 ± 0.013.

Regarding CCTACTAGAT, the switch fluorescence ratio came out at 1.142 ± 0.007.

With ATGTTGTTGA, the switch fluorescence ratio came to 0.998 ± 0.024.

As to TCAGGGGATC, the switch fluorescence ratio was 1.01 ± 0.017.

For GAATCAATGG, the switch fluorescence ratio was 1.03 ± 0.02.

Regarding AGGTTACAAT, the switch fluorescence ratio was determined as 1.04 ± 0.043.

For CTGATGTAGC, the switch fluorescence ratio was determined as 1.21 ± 0.049.

As for CATAATGGTC, the switch fluorescence ratio amounted to 0.986 ± 0.041.

In the case of AGTCTTAGCA, the switch fluorescence ratio came to 0.991 ± 0.049.

Take AAGGCTAGGA: the switch fluorescence ratio stood at 1 ± 0.036.

In the case of AGGTAGGCAT, the switch fluorescence ratio came out at 1 ± 0.041.

Consider GGGGAGTTAG, for which the switch fluorescence ratio is 1.01 ± 0.013.

Take AAAATGGAGA: the switch fluorescence ratio is 0.983 ± 0.029.

As to CCAAGTGTGC, the switch fluorescence ratio came to 1.26 ± 0.17.

CGACATCGGA: the switch fluorescence ratio turned out to be 1.02 ± 0.017.

On to TCGGTGGCGT, for which the switch fluorescence ratio came to 1.02 ± 0.048.

In the case of GCCTAACACT, the switch fluorescence ratio amounted to 1.01 ± 0.04.

As for CAGGGGGTTA, the switch fluorescence ratio is 1.02 ± 0.026.

For ATGTGGGTCT, the switch fluorescence ratio is 1.02 ± 0.056.

For the sequence GCGTTAGTAC, the switch fluorescence ratio is 1.09 ± 0.031.

On to AAAGTATTTC, for which the switch fluorescence ratio worked out at 1.02 ± 0.015.

For GGGTCTTCGT, the switch fluorescence ratio came to 0.968 ± 0.039.

As for TGACTGGACG, the switch fluorescence ratio turned out to be 1 ± 0.028.

On to TAATAGAAGG, for which the switch fluorescence ratio is 0.977 ± 0.0098.

For GAGTCCATGG, the switch fluorescence ratio turned out to be 0.985 ± 0.013.

As to CGGGCTGGGG, the switch fluorescence ratio was determined as 0.993 ± 0.039.

In the case of TGATCTGCAG, the switch fluorescence ratio is 1.016 ± 0.0077.

Turning to ATGTATATAA, the switch fluorescence ratio was found to be 0.985 ± 0.018.

Regarding TTACGAACCG, the switch fluorescence ratio came to 1.23 ± 0.026.

For TAGGGCAGGT, the switch fluorescence ratio turned out to be 1.01 ± 0.036.

For the sequence AATGGCATTC, the switch fluorescence ratio was 1.03 ± 0.038.

As to ATGGGTCTAT, the switch fluorescence ratio stood at 1 ± 0.012.

In the case of GATTGTTCTG, the switch fluorescence ratio was 0.9804 ± 0.0049.

For CGGTTATTAG, the switch fluorescence ratio is 0.9897 ± 0.0066.

As for ACTTCAAGGG, the switch fluorescence ratio was determined as 1.26 ± 0.34.

In the case of GTAGGGAGTT, the switch fluorescence ratio worked out at 0.977 ± 0.012.

Regarding TATGTTTCGG, the switch fluorescence ratio turned out to be 0.98 ± 0.011.

Consider AATGTTTTGA, for which the switch fluorescence ratio is 0.995 ± 0.016.

In the case of ACCTGGAAAA, the switch fluorescence ratio amounted to 0.999 ± 0.048.

As for ATGTTCAGTT, the switch fluorescence ratio was 0.974 ± 0.012.

For TATCGGGGGA, the switch fluorescence ratio came out at 0.985 ± 0.061.

Turning to AGTTTAAGGA, the switch fluorescence ratio came to 1.01 ± 0.025.

TAAATCGTGC: the switch fluorescence ratio worked out at 1.022 ± 0.0064.

On to GTTTTTTGTG, for which the switch fluorescence ratio was 0.986 ± 0.013.

Take AGAACGTTCT: the switch fluorescence ratio worked out at 0.9851 ± 0.0059.

As to GGCACGGGGG, the switch fluorescence ratio stood at 1.02 ± 0.008.

Turning to GAGGGGCTAA, the switch fluorescence ratio turned out to be 0.9516 ± 0.0088.

In the case of ATCGTTTCGT, the switch fluorescence ratio amounted to 1.02 ± 0.019.

As to GACCATGTTT, the switch fluorescence ratio came out at 0.9932 ± 0.0082.

Regarding GGGAAGCCTT, the switch fluorescence ratio worked out at 1.028 ± 0.0069.

Regarding TGGGAAGATT, the switch fluorescence ratio is 1.028 ± 0.0041.

For GGCCTGAGGG, the switch fluorescence ratio was determined as 0.9854 ± 0.0032.

Regarding TTCAGGATGT, the switch fluorescence ratio is 1 ± 0.025.

Consider CCGAACGTCG, for which the switch fluorescence ratio was found to be 1.88 ± 0.27.

Regarding GAAATGAGAT, the switch fluorescence ratio came to 0.975 ± 0.01.

For GCTTACGGGG, the switch fluorescence ratio was found to be 1.04 ± 0.049.

Turning to TCTCGTTTT, the switch fluorescence ratio turned out to be 0.979 ± 0.025.

On to TTGGAGGGGC, for which the switch fluorescence ratio was found to be 1 ± 0.071.

With CCGACGGAGG, the switch fluorescence ratio is 1.99 ± 1.2.

On to ACATTCGCGC, for which the switch fluorescence ratio is 1.148 ± 0.0066.

In the case of ACGTTAAAAT, the switch fluorescence ratio is 1.05 ± 0.021.

Take AAGGCGCGTG: the switch fluorescence ratio stood at 1.01 ± 0.045.

Turning to TTCGCTGTTC, the switch fluorescence ratio was determined as 1.28 ± 0.027.

TATGAACCGT: the switch fluorescence ratio stood at 0.984 ± 0.052.

As for TACGTAATTT, the switch fluorescence ratio is 1.17 ± 0.018.

With AATCTTTGTG, the switch fluorescence ratio was determined as 0.976 ± 0.033.

For CGGAATGATA, the switch fluorescence ratio was found to be 1 ± 0.018.

Take TGTTGCGAAA: the switch fluorescence ratio was 1 ± 0.025.

Take TGTTTCAACT: the switch fluorescence ratio was 0.9843 ± 0.0045.

Turning to AATATAGGCG, the switch fluorescence ratio stood at 1.04 ± 0.073.

Consider GTACTTGGTC, for which the switch fluorescence ratio was determined as 1.03 ± 0.048.

Consider CTGTCTGCCG, for which the switch fluorescence ratio amounted to 1.01 ± 0.017.

In the case of ATGGTTTGGG, the switch fluorescence ratio worked out at 0.99 ± 0.045.
